From paper PMC6802635

Biological target: NRLLLTG peptide
Test: ELISA; 150 ng NRLLLTG peptide coated on the plate in 0.05 M sodium carbonate pH 9.6; HSP70 protein added in a dose-dependent manner; detected with anti-HSP70 antibody, TMB, 450 nm

- fold affinity relative to WT HSP70: 1.5 fold
Substance: purified HSP70 S385D/S400D double phospho-mimetic mutant (from UniProt P0DMV8 1-641) (natural protein)
